Assay results reported in article PMC7150778 (2020).
Read-outs that look alike come from different tables or passages of the source.

Columns and labels:
p85β iSH2 [1] = biological target: p85β iSH2 (UniProt O00459); conditions: cited from earlier work
[2] = biological target: NS1 ED (Influenza A virus) (UniProt P69278); conditions: cited from earlier work
p85β iSH2 [3] = biological target: T1, p85β iSH2 (UniProt O00459)
T1 chain: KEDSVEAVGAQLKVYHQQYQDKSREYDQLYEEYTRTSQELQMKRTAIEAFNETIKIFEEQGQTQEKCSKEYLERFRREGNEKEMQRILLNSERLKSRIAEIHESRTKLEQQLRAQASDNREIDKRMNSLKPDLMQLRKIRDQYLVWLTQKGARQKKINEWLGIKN

Sequence of NS1 ED (P69278 79-205): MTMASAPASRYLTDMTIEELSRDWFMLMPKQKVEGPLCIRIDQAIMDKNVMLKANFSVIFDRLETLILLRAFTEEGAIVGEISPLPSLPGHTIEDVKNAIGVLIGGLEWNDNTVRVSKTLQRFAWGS

Row | Molecule | Kd (p85β iSH2 [3]) [nM] | further results
1 | 1918 NS1 ED-CTT (from UniProt Q0PDM0) |  | Kd (p85β iSH2 [1]): 300 nM
2 | NS1 ED (from UniProt P69278) |  | Kd [2]: 89000 nM
3 | 1918 NS1 ED-ΔCTT (protein) TMASVPASRYLTDMTLEELSRDWSMLIPKQKVAGPLCIRMDQAIMDKNIILKANFSVIFDRLETLILLRAFTEEGAIVGEISPLPSLPGHTAEDVKNAVGVLIGGLEWNDNTVRVSETLQRFAWRSSNENGRPPLTPKQKREMAGTIRSEV | 370 | 
4 | 1918 NS1 ED-CTT (protein) TMASVPASRYLTDMTLEELSRDWSMLIPKQKVAGPLCIRMDQAIMDKNIILKANFSVIFDRLETLILLRAFTEEGAIVGEISPLPSLPGHTAEDVKNAVGVLIGGLEWNDNTVRVSETLQRFAWRSSNENGRPPLTPKQKREMAGTIRSEV | 700 | 
